Values joined by “and” are separate entries in the source; they are usually repeats but may differ in a detail not shown here. Equal values may be shown once.
Key:
[1] = target: T1, LILRB3 expressed on cells (human, UniProt O75022 24-631); assay: flow cytometry on CHO-LILRB3 cells
T1 construct: whole, on cells; Expressed with a GFP tag from the bought plasmid; also called human LILRB3; CHO-LILRB3

[2] = target: T2, LILRA6 expressed on cells (human, UniProt Q6PI73 24-481); assay: flow cytometry on CHO-LILRA6 cells, non-linear fit of the curves of FIG. 26F
T2 construct: whole, on cells; GFP-tagged; also called human LILRA6; CHO-LILRA6

[3] = target: T3, human LILRB2 expressed on cells (human, UniProt Q8N423 22-597); assay: flow cytometry, CHO-LILRB2 cells
T3 construct: In 293T cells it was expressed from pCMV3-LILRB2-GFP; also called CHO-LILRB2; Jurkat-LILRB2

[4] = target: T4, human LILRB1 expressed on cells (human, UniProt Q8NHL6 24-650); assay: flow cytometry, Jurkat-LILRB1 cells; blocked ligand: APC HLA-G trimer tetramer
T4 construct: In 293T cells it was expressed from pCMV3-LILRB1-GFP; also called CHO-LILRB1; Jurkat-LILRB1

[5] = target: T5, LILRB1-ECD-HIS (SinoBiological Cat #: 16014-H02H) (human, UniProt Q8NHL6 24-461); assay: BLI (Gator), trace labelled 5 µg/mL; unit taken from the Average KD line
T5 construct: Bought protein; also called monomeric antigen LILRB1-ECD-HIS; not shown: His tag

[6] = target: T5, LILRB1-ECD-HIS (SinoBiological Cat #: …); assay: SPR (Carterra LSA), antibody captured, antigen injected;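 note: kd obtained from kinetic analysis of antibody binding to the antigen, with association and dissociation phases fitted in the instrument software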
[7] = target: T6, LILRB2-ECD-HIS (SinoBiological Cat #: 14132-H02H) (human, UniProt Q8N423 22-460); assay: as above
T6 construct: Bought protein; also called monomeric antigen LILRB2-ECD-HIS; not shown: His tag

[8] = target: T7, LILRA5 expressed on 293T cells (UniProt A6NI73 42-299, limits assumed); assay: flow cytometry on 293T cells transiently expressing LILRA5, APC anti-human Fc; gMFI as fold to IgG staining
T7 construct: whole, on cells; GFP-tagged, transient

[9] = target: T6, LILRB2-ECD-HIS (SinoBiological Cat #: …); assay: BLI (Gator), trace labelled 0.5 µg/mL; unit taken from the Average KD line
[10] = target: T4, human LILRB1 expressed on cells; assay: flow cytometry on CHO-LILRB1 cells (CHO-RB1), titrated antibody, labelled anti-human Fc, gMFI
[11] = target: T6, LILRB2-ECD-HIS (SinoBiological Cat #: …); assay: BLI (Gator Prime), antibody on anti-hIgG Fc probe, monomeric LILRB2-ECD-HIS in solution
[12] = target: T4, human LILRB1 expressed on cells; assay: flow cytometry on CHO-LILRB1 cells, non-linear fit of the curves of FIG. 26A
[13] = target: T5, LILRB1-ECD-HIS (SinoBiological Cat #: …); assay: BLI (Gator), trace labelled 2 µg/mL; unit taken from the Average KD line
[14] = target: T3, human LILRB2 expressed on cells; assay: flow cytometry on CHO-LILRB2 cells (CHO-RB2), titrated antibody, labelled anti-human Fc, gMFI
[15] = target: T8, LILRA2 expressed on 293T cells (UniProt Q8N149 24-483, limits assumed); assay: flow cytometry on 293T cells transiently expressing LILRA2, APC anti-human Fc; gMFI as fold to IgG staining
T8 construct: whole, on cells; GFP-tagged, transient

[16] = target: T9, cynomolgus (monkey) LILRB2 expressed on CHO cells (cynomolgus monkey); assay: flow cytometry on CHO-cynoLILRB2 cells
T9 construct: whole, on cells; Putative orthologue; also called cynoLILRB2; cynoRB2

[17] = target: T6, LILRB2-ECD-HIS (SinoBiological Cat #: …); assay: BLI (Gator), trace labelled 2 µg/mL; unit taken from the Average KD line
[18] = target: T5, LILRB1-ECD-HIS (SinoBiological Cat #: …); assay: BLI (Gator), trace labelled 0.5 µg/mL; unit taken from the Average KD line

T6 sequence (Q8N423 other isoform, or with tags, fused parts or gaps H02H H02H): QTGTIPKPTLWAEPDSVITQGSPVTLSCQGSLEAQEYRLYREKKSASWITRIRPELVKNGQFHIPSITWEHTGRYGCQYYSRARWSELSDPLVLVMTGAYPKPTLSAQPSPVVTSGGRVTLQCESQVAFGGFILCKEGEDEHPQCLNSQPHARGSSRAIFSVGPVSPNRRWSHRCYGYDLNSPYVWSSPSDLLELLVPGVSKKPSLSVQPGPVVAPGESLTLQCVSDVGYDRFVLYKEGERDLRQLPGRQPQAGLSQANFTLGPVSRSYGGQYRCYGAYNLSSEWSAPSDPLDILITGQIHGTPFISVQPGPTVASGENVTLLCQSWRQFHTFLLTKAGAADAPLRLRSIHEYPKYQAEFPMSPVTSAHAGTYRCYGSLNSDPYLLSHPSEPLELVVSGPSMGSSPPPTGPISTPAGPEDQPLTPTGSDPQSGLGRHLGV
T5 sequence (Q8NHL6 other isoform, or with tags, fused parts or gaps H02H H02H): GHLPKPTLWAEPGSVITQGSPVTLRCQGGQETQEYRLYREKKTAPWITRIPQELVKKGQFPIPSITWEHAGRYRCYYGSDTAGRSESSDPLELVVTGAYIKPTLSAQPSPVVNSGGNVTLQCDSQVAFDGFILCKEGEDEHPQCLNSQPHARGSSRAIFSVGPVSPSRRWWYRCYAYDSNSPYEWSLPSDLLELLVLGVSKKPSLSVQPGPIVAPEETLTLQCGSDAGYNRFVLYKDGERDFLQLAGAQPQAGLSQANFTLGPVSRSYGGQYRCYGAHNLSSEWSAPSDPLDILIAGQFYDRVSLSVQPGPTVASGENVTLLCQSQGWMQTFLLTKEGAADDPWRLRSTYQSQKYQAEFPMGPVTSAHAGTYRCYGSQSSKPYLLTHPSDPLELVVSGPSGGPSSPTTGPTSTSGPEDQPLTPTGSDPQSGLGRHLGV
T4 sequence (Q8NHL6 other isoform, or with tags, fused parts or gaps limits assumed): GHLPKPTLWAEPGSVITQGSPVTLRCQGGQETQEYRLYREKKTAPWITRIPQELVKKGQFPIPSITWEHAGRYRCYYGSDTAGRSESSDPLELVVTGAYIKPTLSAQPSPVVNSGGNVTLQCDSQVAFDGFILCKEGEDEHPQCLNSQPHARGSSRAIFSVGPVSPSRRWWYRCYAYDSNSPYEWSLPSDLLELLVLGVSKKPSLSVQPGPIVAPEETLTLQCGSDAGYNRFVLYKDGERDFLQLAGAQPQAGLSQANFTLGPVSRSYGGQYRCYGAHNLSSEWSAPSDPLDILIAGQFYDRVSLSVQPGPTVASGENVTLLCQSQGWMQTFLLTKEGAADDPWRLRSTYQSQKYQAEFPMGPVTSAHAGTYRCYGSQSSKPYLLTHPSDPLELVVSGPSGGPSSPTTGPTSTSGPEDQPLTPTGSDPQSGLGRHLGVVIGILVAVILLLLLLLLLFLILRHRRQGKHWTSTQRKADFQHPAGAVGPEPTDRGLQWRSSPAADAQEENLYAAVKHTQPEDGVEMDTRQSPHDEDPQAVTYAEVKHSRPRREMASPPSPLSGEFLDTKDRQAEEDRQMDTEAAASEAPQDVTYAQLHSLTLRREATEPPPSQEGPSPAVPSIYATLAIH
T3 sequence (Q8N423 other isoform, or with tags, fused parts or gaps limits assumed): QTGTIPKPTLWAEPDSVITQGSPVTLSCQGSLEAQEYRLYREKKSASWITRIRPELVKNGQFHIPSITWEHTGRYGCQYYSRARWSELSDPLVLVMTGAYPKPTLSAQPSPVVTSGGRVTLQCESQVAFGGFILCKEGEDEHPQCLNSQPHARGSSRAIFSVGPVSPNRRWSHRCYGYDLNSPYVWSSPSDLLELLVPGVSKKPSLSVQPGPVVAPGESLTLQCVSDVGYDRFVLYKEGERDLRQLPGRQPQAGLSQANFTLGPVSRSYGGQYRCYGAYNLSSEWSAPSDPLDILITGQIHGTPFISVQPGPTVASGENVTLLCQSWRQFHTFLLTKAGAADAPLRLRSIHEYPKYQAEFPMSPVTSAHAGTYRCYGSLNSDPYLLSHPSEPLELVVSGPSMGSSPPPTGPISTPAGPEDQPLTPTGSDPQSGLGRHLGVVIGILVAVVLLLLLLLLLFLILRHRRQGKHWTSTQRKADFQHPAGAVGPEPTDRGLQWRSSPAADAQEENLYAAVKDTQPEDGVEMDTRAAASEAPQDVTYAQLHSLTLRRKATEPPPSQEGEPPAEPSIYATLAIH
T2 sequence (Q6PI73 24-481): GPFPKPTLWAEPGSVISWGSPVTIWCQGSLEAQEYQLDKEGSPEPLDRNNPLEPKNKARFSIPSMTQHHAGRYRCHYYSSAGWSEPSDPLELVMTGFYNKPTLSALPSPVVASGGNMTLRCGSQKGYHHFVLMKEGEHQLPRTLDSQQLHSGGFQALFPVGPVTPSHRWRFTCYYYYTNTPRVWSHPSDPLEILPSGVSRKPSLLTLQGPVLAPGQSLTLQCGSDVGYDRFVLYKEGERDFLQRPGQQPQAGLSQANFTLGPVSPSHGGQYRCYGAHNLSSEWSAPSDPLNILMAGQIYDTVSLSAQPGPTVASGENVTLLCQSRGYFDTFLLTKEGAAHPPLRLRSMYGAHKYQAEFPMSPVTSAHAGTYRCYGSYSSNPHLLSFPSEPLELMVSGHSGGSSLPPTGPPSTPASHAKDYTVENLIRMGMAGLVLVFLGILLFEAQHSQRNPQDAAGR
T8 sequence (Q8N149 24-483 limits assumed): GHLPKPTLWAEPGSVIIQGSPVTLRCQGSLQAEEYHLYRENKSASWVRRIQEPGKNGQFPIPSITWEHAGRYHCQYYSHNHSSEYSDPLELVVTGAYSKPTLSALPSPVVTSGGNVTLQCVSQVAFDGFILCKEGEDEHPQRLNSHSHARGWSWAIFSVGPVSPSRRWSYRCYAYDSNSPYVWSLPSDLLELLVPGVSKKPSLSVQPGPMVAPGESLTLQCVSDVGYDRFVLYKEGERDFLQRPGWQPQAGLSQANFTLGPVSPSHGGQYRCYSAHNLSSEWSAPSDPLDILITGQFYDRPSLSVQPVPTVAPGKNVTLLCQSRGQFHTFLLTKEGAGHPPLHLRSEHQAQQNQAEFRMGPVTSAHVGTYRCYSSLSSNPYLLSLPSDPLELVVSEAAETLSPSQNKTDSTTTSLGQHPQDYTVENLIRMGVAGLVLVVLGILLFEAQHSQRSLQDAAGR
T7 sequence (A6NI73 42-299 limits assumed): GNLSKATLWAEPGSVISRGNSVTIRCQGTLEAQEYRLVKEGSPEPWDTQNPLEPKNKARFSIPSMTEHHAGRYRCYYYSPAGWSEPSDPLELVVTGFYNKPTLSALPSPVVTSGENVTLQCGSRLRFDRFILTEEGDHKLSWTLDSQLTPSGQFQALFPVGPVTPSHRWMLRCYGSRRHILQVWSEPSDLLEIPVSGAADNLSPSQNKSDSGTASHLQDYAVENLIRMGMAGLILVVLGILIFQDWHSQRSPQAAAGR

B1: D2M002-002 (antibody, V domains shown)
VH: EVQLQQSGPELVKPGASVKMSCKASGYTFTRYVMHWVKQKPGQGLEWIGYINPNNDGTKYNEKFKGKVTLTSDKSSSTAYMELSSLTSEDSAVYYCARGDLEILPYYDHARNAMDYWGQGTSVTVSS
VL: DVQMIQSPASLSASVGETVTITCRASENIYSYLAWYQQKQGKSPQLLVYNAKTLAEGVPSRFSGSGSGTQFSLKINSLQPEDFGSYYCQHFWSTPPTFGGGTKLEIK
notes: Hit from immunised mice; also called clone #2; anti-LILRB1/2 clone #2
EC50 [1]: 4 µg/mL and 26.6 nM | EC50 [2]: 9.46 mg/L | EC50 [3]: 0.21 mg/L | gMFI (max) [3]: 21900 | IC50 [4]: 0.191 mg/L | Kd [5]: 3.61 nM | Kd [6]: 9.77 nM | Kd [7]: 1.57 nM | binding result [8]: no binding (tested: 5 µg/mL) | Kd [9]: 0.265 nM | EC50 (read off the curve) [10]: ~0.2 mg/L | Kd [11]: 0.286 nM | EC50 [12]: 0.218 mg/L | MaxMFI [12]: 110000 | Kd [13]: 3.45 nM | EC50 (read off the curve) [14]: ~0.1 mg/L | binding result [15]: no binding (tested: 5 µg/mL) | EC50 [16]: 5.5 mg/L | Kd [17]: 0.242 nM | Kd [18]: 3.13 nM
